The results in this text go back to article PMC9377714, “Unconventional tonicity-regulated nuclear trafficking of NFAT5 mediated by KPNB1, XPOT and RUVBL2” (Journal of Cell Science, 2022).

Common to all, as to settings: both partners purified
For assay [1], the target named is T1, His–KPNB1 (UniProt Q14974 1-876).
T1 construct: KPNB1 (karyopherin β1, importin β1), full length, in a modified pET 30a vector; In the pull-down it was held on Ni-NTA by the His tag; also called full-length KPNB1; source: E. coli BL21 (DE3), purified (HisTrap HP)
As to the kind of experiment: pull-down; His–KPNB1 immobilised on Ni-NTA agarose, GST fusion proteins added, 4°C overnight; washes with 20 mM sodium phosphate, 100 mM NaCl, 40 mM imidazole, 10% glycerol; SDS–PAGE and Coomassie Blue.

Assay [2] deals with T1, His–KPNB1. Kind of assay: ITC; NFAT5_(171–253) at 600 μM titrated into 20 μM full-length KPNB1; 10 mM Na2HPO4, 1.8 mM KH2PO4, 2.7 mM KCl, pH 7.4, 150 mM NaCl; MicroCal PEAQ-ITC. Background: ITC needs no label: the signal is the heat of the interaction.
Assay [3] has as its target T1, His–KPNB1. As to the kind of experiment: ITC; NFAT5 fragment at 1.5–1.75 mM titrated into 50 μM full-length KPNB1; 50 mM Tris-HCl pH 8.0, 150 mM NaCl; MicroCal PEAQ-ITC.

T1 sequence (Q14974 whole entry): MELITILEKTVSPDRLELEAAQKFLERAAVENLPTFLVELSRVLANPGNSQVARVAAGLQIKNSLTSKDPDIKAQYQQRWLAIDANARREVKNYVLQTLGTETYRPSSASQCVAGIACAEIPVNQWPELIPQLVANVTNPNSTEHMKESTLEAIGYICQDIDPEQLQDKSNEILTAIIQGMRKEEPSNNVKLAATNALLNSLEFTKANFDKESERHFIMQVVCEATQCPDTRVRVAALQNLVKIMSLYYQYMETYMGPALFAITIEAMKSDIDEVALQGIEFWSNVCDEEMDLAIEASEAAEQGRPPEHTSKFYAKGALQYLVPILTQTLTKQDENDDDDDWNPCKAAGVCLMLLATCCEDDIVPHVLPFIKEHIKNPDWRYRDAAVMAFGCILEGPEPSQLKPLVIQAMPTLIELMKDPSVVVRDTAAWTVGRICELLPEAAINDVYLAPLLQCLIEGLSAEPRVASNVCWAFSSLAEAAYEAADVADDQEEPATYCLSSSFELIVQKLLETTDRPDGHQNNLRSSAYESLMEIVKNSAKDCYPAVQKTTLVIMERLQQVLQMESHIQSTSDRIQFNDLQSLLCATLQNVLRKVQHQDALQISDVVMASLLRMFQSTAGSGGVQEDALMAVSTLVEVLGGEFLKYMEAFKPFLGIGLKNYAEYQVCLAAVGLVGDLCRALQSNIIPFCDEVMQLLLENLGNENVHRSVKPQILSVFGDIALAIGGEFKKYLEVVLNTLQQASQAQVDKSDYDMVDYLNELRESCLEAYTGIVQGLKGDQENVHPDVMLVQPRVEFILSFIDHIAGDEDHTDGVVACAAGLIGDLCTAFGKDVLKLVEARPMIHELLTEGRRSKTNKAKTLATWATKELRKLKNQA

B1: GST–NFAT5_(171–250) (domain or fragment, UniProt O94916 171-250, looked up)
chain: SCSMWMEDSPSNFSNMSTSSYNDNTEVPRKSRKRNPKQRPGVKRRDCEESNMDIFDADSAKAPHYVLSQLTTDNKGNSKA
notes: also called NFAT5-NLS; source: E. coli BL21 (DE3), purified (glutathione Sepharose); not shown: GST, N-terminal, kept
Take B1: in assay [1], the binding result is reported as “binds”.

B2: NFAT5_(171–253) (domain or fragment, UniProt O94916 171-253, looked up)
chain: SCSMWMEDSPSNFSNMSTSSYNDNTEVPRKSRKRNPKQRPGVKRRDCEESNMDIFDADSAKAPHYVLSQLTTDNKGNSKAGNG
notes: source: E. coli BL21 (DE3), purified
In general, Kd refers to the free concentration of one partner at which half of the binding sites on the other are occupied at equilibrium, for simple one-to-one binding. A high value points to lower affinity. In the case of B2, the dissociation constant (Kd) in assay [2] is ~1.2 µM.

B3: GST–NFAT5_(190–250) (domain or fragment, UniProt O94916 190-250, looked up)
chain: SYNDNTEVPRKSRKRNPKQRPGVKRRDCEESNMDIFDADSAKAPHYVLSQLTTDNKGNSKA
notes: NFAT5 residues 190-250, cloned at the C terminus of GST in pGEX-4T-1; source: E. coli BL21 (DE3), purified (glutathione Sepharose); not shown: GST, N-terminal, kept
Consider B3, for which, in assay [1], the binding result was “binds”.

B4: GST–NFAT5_(171–220) (domain or fragment, UniProt O94916 171-220, looked up)
chain: SCSMWMEDSPSNFSNMSTSSYNDNTEVPRKSRKRNPKQRPGVKRRDCEES
notes: source: E. coli BL21 (DE3), purified (glutathione Sepharose); not shown: GST, N-terminal, kept
With B4, the binding result in assay [1] is listed as “binds”.

B5: NFAT5_(151–216) (domain or fragment, UniProt O94916 151-216, looked up)
chain: LLDNSRMSCQDEGCGLESEQSCSMWMEDSPSNFSNMSTSSYNDNTEVPRKSRKRNPKQRPGVKRRD
notes: as for B2
For the molecule B5, the dissociation constant Kd in assay [3] is ~1.3 µM.

B6: NFAT5_(189–216) (domain or fragment, UniProt O94916 189-216, looked up)
chain: SSYNDNTEVPRKSRKRNPKQRPGVKRRD
notes: also called NFAT5-cNLS; source: E. coli BL21 (DE3), purified
On to B6, for which the Kd in assay [3] is ~1.5 µM.
